Values of other authors, collected in paper PMC13371949 (Journal of peptide science : an official publication of the …, 2025).

Tests used:
[1] = previous work

glucagon [glucagon control]
time to fibril formation in solution [1]: ~ 11 hours | isoelectric point: near neutral | solubility at pH 7 (pH 7): limited solubility
